Publication PMC4775417 (Structure (London, England : 1993), 2016)

Target: Met1-linked tri-ubiquitin chain (UniProt P0CG48 1-76; P0CG48 1-76; P0CG48 1-76)
Experiment: SPR

Sequence of Met1-linked tri-ubiquitin chain (P0CG48 1-228, one chain of several): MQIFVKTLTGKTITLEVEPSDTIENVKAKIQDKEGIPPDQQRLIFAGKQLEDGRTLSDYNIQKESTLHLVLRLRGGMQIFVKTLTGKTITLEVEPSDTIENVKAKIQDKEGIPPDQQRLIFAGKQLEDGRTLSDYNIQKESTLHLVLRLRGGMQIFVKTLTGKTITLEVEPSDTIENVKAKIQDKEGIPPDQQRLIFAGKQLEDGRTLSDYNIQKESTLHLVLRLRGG

binding result: binds
B1: His-tagged AIRAPL tUIM (residues 188-240), wild type (domain or fragment, mouse, UniProt Q91X58 188-240, looked up)
chain: PVIALQNGLSEDEALQRALELSLAEAKPQVLSSQEEDDLALAQALSASEAEYQ
